Publication PMC10592010

Biological target: EGFP-tagged full-length AR pQ69 mutant (GFP-ARpQ69) (human) (UniProt P10275)
Assay: live-cell single-particle tracking

Halo-tagged AR NTD pQ69 with NLS (Halo-ARNTDpQ69-NLS) (from UniProt P10275-1 1-538) (domain or fragment)
residence time (RT): 16 s
